From patent publication JP2004000045A (dated 2004) come the findings set out here.

Test [1] concerns the target T1, ヒト前立腺特異的膜抗原(PSMA) (human, UniProt Q04609 1-750).
T1 construct: whole, on cells; also called PSMA; ヒトPSMA
The test is described as follows: flow cytometry, 10 μg/mL, Namalwa KJM-1 cells transfected with PSMA cDNA (pAMoPSMA). For orientation: Flow cytometry measures light scatter and fluorescence of single cells or particles in a stream.

Test [2] deals with T1, ヒト前立腺特異的膜抗原(PSMA). The test is described as follows: flow cytometry, 10 μg/mL, LNCaP cells.

T1 sequence (Q04609 whole entry): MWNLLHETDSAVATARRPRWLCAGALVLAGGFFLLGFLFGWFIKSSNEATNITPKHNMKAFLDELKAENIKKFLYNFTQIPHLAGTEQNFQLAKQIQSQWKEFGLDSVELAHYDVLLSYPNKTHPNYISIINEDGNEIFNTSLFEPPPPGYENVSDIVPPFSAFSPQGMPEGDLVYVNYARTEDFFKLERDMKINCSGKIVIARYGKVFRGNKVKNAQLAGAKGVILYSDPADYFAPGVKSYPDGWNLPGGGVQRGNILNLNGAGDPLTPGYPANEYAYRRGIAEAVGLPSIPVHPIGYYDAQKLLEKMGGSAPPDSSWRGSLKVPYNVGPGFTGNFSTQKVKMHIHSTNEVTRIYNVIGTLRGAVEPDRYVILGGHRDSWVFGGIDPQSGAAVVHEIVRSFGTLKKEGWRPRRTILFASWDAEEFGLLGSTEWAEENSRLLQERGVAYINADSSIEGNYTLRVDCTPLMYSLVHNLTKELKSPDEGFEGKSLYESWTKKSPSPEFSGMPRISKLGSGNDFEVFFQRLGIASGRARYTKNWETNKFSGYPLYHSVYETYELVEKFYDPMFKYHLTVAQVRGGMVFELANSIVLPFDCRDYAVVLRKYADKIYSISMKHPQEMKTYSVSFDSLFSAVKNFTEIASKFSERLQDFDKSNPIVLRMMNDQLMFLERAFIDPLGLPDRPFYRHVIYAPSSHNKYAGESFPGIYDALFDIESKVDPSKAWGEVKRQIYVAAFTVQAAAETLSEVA

B1: 抗PSMAマウス抗体2C9 (antibody, V domains shown)
VH: DVHLQESGPGLVKPSQSLSLTCTVTGYSITSDYAWNWIRQFPGNKLEWMGYISFSGSTSYNPSLKSRISVTRDTSKNQFFLQLNSVTTEDTATYYCARWNYYGSSHVWFAYWGQGTLVTVSA
VL: DIKMTQSPSSMYASLGERVTITCKASQDIYSYLIWFQQKPGKSPKTLIYRANRLVDGVPSRFSGSGSGQDYSLTISSLEYEDMGIYYCLQYDEFATFGSGTKLEMKR
notes: Whole mouse antibody from hybridoma; also called マウスモノクローナル抗体2C9; 2C9
Regarding B1, in the test with ヒト前立腺特異的膜抗原(PSMA) [1], the binding result is reported as “binds”.

B2: アドリアマイシン結合抗PSMAキメラ抗体ADM−KM2777 (antibody, human IgG1, V domains shown)
VH: DVHLQESGPGLVKPSQSLSLTCTVTGYSITSDYAWNWIRQFPGNKLEWMGYISFSGSTSYNPSLKSRISVTRDTSKNQFFLQLNSVTTEDTATYYCARWNYYGSSHVWFAYWGQGTLVTVSA
VL: DIKMTQSPSSMYASLGERVTITCKASQDIYSYLIWFQQKPGKSPKTLIYRANRLVDGVPSRFSGSGSGQDYSLTISSLEYEDMGIYYCLQYDEFATFGSGTKLEMKR
modifications: as for the heavy chain: linker on amino groups, sites not stated; adriamycin-(Gly-Pro)-PEG linker (PEG average MW about 2,000) coupled through NHS ester to amino groups of the antibody; on average 2.5 ADM per antibody molecule; sites not stated
notes: also called ADM-KM2777
As for B2, the binding result with ヒト前立腺特異的膜抗原(PSMA) [2] is listed as “binds”.

B3: 抗PSMAキメラ抗体KM2777 (antibody, human IgG1, V domains shown)
VH: DVHLQESGPGLVKPSQSLSLTCTVTGYSITSDYAWNWIRQFPGNKLEWMGYISFSGSTSYNPSLKSRISVTRDTSKNQFFLQLNSVTTEDTATYYCARWNYYGSSHVWFAYWGQGTLVTVSA
VL: DIKMTQSPSSMYASLGERVTITCKASQDIYSYLIWFQQKPGKSPKTLIYRANRLVDGVPSRFSGSGSGQDYSLTISSLEYEDMGIYYCLQYDEFATFGSGTKLEMKR
notes: Human-type chimeric antibody: 2C9 VH joined to human IgG1 CH and 2C9 VL joined to human kappa CL (vector pKANTEX93), produced in YB2/0 cells; also called KM2777; 抗PSMAヒト型キメラ抗体
Take B3: the binding result with ヒト前立腺特異的膜抗原(PSMA) [2] is given as “binds”.
